Changes are numbered by the printed parent chain.
B1: MGU3 (antibody, V domains shown)
VH: EVLLVESGGGLVQPGGSLRLSCAASGFTFSDYNMHWVRQAPGKGLEWLSYISHSSSTTYYADSVRGRFTISRDNAKNSLYLQMNSLRAEDTAVYYCARLRPLSYSGRYRDYWGQGTLVTVSS
VL: DIQMTQSPSSLSASVGDRVTITCQASQDVSNYVNWYQQKPGKAPKVLIYDASTLQTGVPSRFSGSGSGTDFTFSISSLQPEDIATYYCQQYDSLPLTFGGGTKVEIK
B2: MGU12 (antibody, V domains shown)
VH: QVQLVESGGGVVQPGRSLRLSCAASGFSFSSYGMHWVRQAPGKGPEWVAVIWHDGSYSYYADSVRGRFTISRDNSKNTLYLQMNSLRPEDTGMYHCVKVEDYVRGSSHGGAFHIWGQGTMVTVSS
VL: DIQMTQSPSTLSASVGDRVTITCRASQTINNWLAWYQWKPGKAPELLIYKASSLESGVPSRFSGSGSGTEFTLTISSLQPDDFATYYCQQYSSYWTFGQGTKVDIK
B3: MGG2 (antibody, V domains shown)
VH: EVQLVESGGGLVQPGGSLRLSCAASGFTLNNYWMHWVRQAPGKGLVWVAHINIDGSTTTYADSVKGRFTISRDNAKNTLYLQMNSLRAEDTAVYYCAKGSIKAGGFWSGYSNWFDPWGQGTLVTVSS
VL: QAVVTQEPSLTVSPGGTVTLTCDSDPGPVTSGHYPYWFQQKPGQVPRTLIYDTSNKHSWTPARFSGSLLGGKAALTLSGAQPEDEADYYCLLSYGGAPVFGGGTKLTVL
B4: MGH1 (antibody, V domains shown)
VH: QVQLVQSGAEVKKPGASVRVSCKTSGYTFTDYYVHWVRQAPGHGLECMGWINPYIGVSKYAQKFQGRVTLTRDTSISTAYMEISRLTSDDTAVYYCAACSNVGCYVYWGQGSLVTVSS
VL: DVVMTQSPLSLPVTLGQPASISCRSSQSLVYSDGNTYLNWFQQRPGQSPRRLIYKVSNRDSGVPDRFSGSGSGTDFTLKISRVEAEDVAIYFCMQGTHWPDTFGQGTKLEIK
B5: MGH2 (antibody, V domains shown)
VH: QVQLVESGGGVVQPGGSLRLSCTASGFSFSSYAMHWVRQAPGKGLEWVAYTRYDGSNKFYLDSVQGRFTISRDNSKNTLYLEMDSLRLEDTAVYFCAKVGDGTVAGTIDYWGQGTLVTVSS
VL: YIVMTQSPLSLPVTLGQPASISCRSSQSLVYSDGNTYLNWYQQRPGQSPRRLIYKVSNRDSGVPDRFSGSGSGTDFTLKISRVEAEDVGVYYCMQGTHWWTFGQGTKVEIK
B6: MGV3 (antibody, V domains shown)
VH: EVQVVESGGDLVQPGGSLRLSCAVYGFTVSDSYMSWVRQAPGKGLEWVSVIYSGSSTYYIDSVKGRFTISRDRSKNTLYLQMNTLRVEDTALYYCARGPNDYRNRKYYYYMDVWGKGTAVTVSS
VL: EIVLTQSPDTLSLSAGERVTLSCRASQSVDSPYLAWYQQRPGQTPRLLIFGASIRATDIPDRFSGGGSGTDFTLTISRLEPEDSGVYYCHQYGNAPYIFGQGTKLEIK
notes: also called biotin-labeled MGV3; biotinylated MGV3
B7: MGU1 (antibody, V domains shown)
VH: QVQLVESGGGVVQPGRSLRLSCAASGFAFSSYGMNWVRQAPGKGLEWVAVIWHDGTNKYYRDSVKGRFIISRDNAKNTLYLQMDSLSAEDTAMYYCAIWYLDSPDHGFDIWGRGTMVTVSS
VL: QLVLTQSPSASASLGVSVTLTCTLNNGHSSNAIAWHQQQPGKGPRYLMKVNSDGSHNKGAAVPDRFSGSSSGTERHLTISSLQSDDEADYYCQAWDSGIWVFGGGTKLTVL
B8: MGU5 (antibody, V domains shown)
VH: QVQLVESGGGVVQPGRSLRLSCAASGFSFSSYGMHWVRQAPGKGLDWVALIWHDGTNKFYTDSVKGRFTISRDNSKDTLFLQMNSLRVEDTAVYYCTKRAGWGDALDIWGQGTMVTVSS
VL: DIQMTQSPSSLSASVGDRVTITCQASQDISNYLNWYQQKPGKAPKLLIYDASNLETGVPSRFSGSGSATDFTLTISSLQSEDIATYYCQQQRIFGGGTKVEIK
B9: MGU8 (antibody, V domains shown)
VH: QVQLVESGGGVVQPGRSLRLSCAAGGFTFSNYGMHWVRQAPGKGLEWVALIWHDGTNKFYADSVKGRFTISRDNSKNTLSLQMDSLTTEDTAIYFCTKRGGWGDGSDIWGQGTMVTVSS
VL: B8 VL with I29V, S30D, Q38H, E55A, A68S, E81D, I83F, K99R
B10: MGG3 (antibody, V domains shown)
VH: QEQLVESGGGVVQPGKSLRLSCAASGFTFSTFGMHWVRQAPGKGLEWVAVIWYDGSSKYHADSVKGRFTISRDNSKSTLYLQMNSLRAEDTAMYYCVKVGANWGWRYFDLWGRGTLVTVSS
VL: DIVMTQTPLSLSVTPGQPASISCKSSQSLLHSDGNTYLSWYLQKPGQSPQLLIYEVSSRFSGVPDRFSGSGSGTDFTLKISRVEADDVGVYYCMQGIHSWTFGQGTKVEIK
B11: MGG4 (antibody, V domains shown)
VH: QVQLVESGGGVVQPGRSLRLSCAASGFRFSDYGMHWVRQAPGKGLEWVALIWYDGSNESYLDSVKGRFTISRDNSKNTLYLQMNNLRTEDTAVYYCAKLLVGITTDVFDVWGQGTVVTVSS
VL: DIVMTQSPDSLAVSLGERATINCRSSQSVLSSSNNKNYLAWYQHKPRQPPKLLIYWASTRESGVPDRFSGSGSGTDFTLTISSLQAEDVAVYYCQQYYTASPFFGGGTKVEIK
B12: MGG8 (antibody, V domains shown)
VH: EVQLVESGGGLVQPGGSLKLSCAASGFMISGSVLHWVRQASGKGLEWLGRIRDKANNEATAYAASVKGRFTISRDDSKDTTYLQMNSLRIEDTAVYYCTRGIIVGDTWHFDPWGQGTLVTVSS
VL: DIVMTQTPLSLSVTPGQTASISCKSSESLLRSDGKTYLYWYLQKPGQSPQLLMYEVSKRFSGVPDRFSGSGSGTDFTLKISRVETDDVGIYYCMQSIQLVTFGQGTKVEIK
B13: MGG1 (antibody, V domains shown)
VH: EVQLVESGGGVVRPGGSLRLSCAASGFTFDDYAMSWVRQAPGKGLEWVSGINWNGGSTGYADSVKGRFTISRDNAKNSLYLQMNSLRAEDTALYHCARLGRAAREYYYYYMDVWGKGTTVTVSS
VL: QSVLTQPPSVSAAPGQKVTISCSGSSSNIGNNYVSWYQQLPGTAPKLLIYDNNKRPSGIPDRFSGSKSGTSATLGITGLQTGDEADYYCGTWDSSLSAGVFGGGTKLTVLG
B14: MGH3 (antibody, V domains shown)
VH: EVQLVESGGGLVKPGGSLRLSCAASGFTFSSYTMNWVRQAPGKGLEWVSSISSSGSYIYYADSVKGRCTISRDNAKNSLDLQMNSLRAEDAAVYYCARNVLDSSGYPTYFDYWGQGTLVTVSS
VL: DIVMTQSPLSLPVTPGEPASISCRSSQSLLYSNGYNYLDWYVQKPGQSPRLLIYLGSNRASGVPDRFSGSGSGTDFTLRISRVEAEDVGFYYCMQAVQTPLTFGGGTKVEIK
B15: MGU11 (antibody, V domains shown)
VH: QVQLVESGGGVVQPGRSLRLSCVASGFSFSSYGMHWVRQAPGKGLEWVAVIWYDGTNKYYADSVKGRFTISRDNTKNTLYLQMNSLRADDTAMYYCANDIAGWGYDGSNAWGQGTLVTVSS
VL: LSLPVTPGQPASISCKSSQSLVYSDGNTYLNWFQQRPGQSPRRLIYKVSNRDSGVPDRFSGSGSGTDFTLKISRVEAEDVGVYYCMQGTVGFTFGPGTTVDIK
B16: MGU10 (antibody, V domains shown)
VH: QVQLVESGGGVVQPGRSLRLSCAASGFAFSNYGMNWVRQAPGKGLEWVAVIWHDGSLKYYTQSVKGRFTISRDNAKNTLFLQMDSLSADDTAMYYCTVWYLETPDDGFDIWGRGTMVTVSS
VL: B7 VL with S7P, N25S, N26H, S29T, N31K, N57T, S70T, T73A, L77F, S81N

Each binder was assayed against T1, CSP C-terminal peptide 282-383 (Plasmodium falciparum) (assay: ELISA, peptide coated at 1 ug/ml, B cell supernatants from 1/3 to 1/648 dilution).
T1 construct: Coated at 1 ug/ml in ELISA; also called C-terminus of CSP

Row | Binder | binding result
1 | B1 | binds

Target: T2, NPDP-peptide (Plasmodium falciparum)
T2 peptide: KQPADGNPDPNANPNKNN
Test: ELISA, peptide coated, titrated antibody

Row | Binder | EC50 [µg/mL] | binding result
2 | B2 | < 0.1 | 
3 | B3 |  | binds
4 | B4 |  | binds
5 | B5 | < 0.1 | 
6 | B6 |  | binds
7 | B1 |  | no binding
8 | B7 |  | binds
9 | B8 | < 0.1 | 
10 | B9 | < 0.1 | 
11 | B10 | < 0.1 | 
12 | B11 | < 0.1 | 
13 | B12 |  | binds

Target: T3, 22-110-peptide (Plasmodium falciparum)
T3 construct: N-terminal CSP peptide coated at 1 ug/mL in ELISA
T3 peptide: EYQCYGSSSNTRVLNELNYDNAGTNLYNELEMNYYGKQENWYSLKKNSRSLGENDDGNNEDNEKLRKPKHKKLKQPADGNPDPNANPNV
Test: ELISA, peptide coated, titrated antibody

Row | Binder | binding result
14 | B3 | binds
15 | B4 | binds
16 | B13 | binds
17 | B6 | binds
18 | B1 | no binding
19 | B7 | binds
20 | B12 | binds

Target: T4, NANP-peptide (Plasmodium falciparum)
T4 construct: CSP repeat peptide coated at 2 ug/mL in ELISA; also called NANP repeat region peptide
T4 peptide: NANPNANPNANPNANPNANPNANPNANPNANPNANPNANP
Test: ELISA, peptide coated, titrated antibody

Row | Binder | binding result
21 | B3 | binds
22 | B4 | binds
23 | B14 | binds
24 | B6 | no binding
25 | B1 | no binding
26 | B7 | binds
27 | B12 | binds

What follows are binders tested against T1, CSP C-terminal peptide 282-383 (assay: ELISA, C-terminal peptide 282-383 coated at 1 ug/ml).

Row | Binder | binding result
28 | B2 | no binding
29 | B3 | no binding
30 | B4 | no binding
31 | B14 | no binding
32 | B5 | no binding
33 | B13 | no binding
34 | B15 | no binding
35 | B6 | no binding
36 | B7 | no binding
37 | B16 | no binding
38 | B8 | no binding
39 | B9 | no binding
40 | B10 | no binding
41 | B11 | no binding
42 | B12 | no binding
